How the values were obtained:
[1] = biological target: GST-KRIT1 FERM (human, UniProt O00522 420-734); experiment: pull-down
[2] = biological target: KRIT1(L717,721A) FERM protein (human, UniProt O00522 420-734, L717A | L721A); experiment: ITC
[3] = biological target: KRIT1 FERM domain, KRIT1(417-736) (human, UniProt O00522 417-736); experiment: ITC
Chain of KRIT1 FERM domain, KRIT1(417-736) (O00522 417-736): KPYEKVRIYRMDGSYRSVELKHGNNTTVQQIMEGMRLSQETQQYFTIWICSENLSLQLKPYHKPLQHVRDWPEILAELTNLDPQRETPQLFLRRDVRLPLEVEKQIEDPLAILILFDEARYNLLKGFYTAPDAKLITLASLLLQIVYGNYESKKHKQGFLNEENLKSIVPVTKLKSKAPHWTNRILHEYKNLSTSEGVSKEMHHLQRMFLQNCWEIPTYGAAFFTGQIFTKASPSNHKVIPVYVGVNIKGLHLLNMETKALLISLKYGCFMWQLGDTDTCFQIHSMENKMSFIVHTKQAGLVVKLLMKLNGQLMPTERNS

Chain of KRIT1(L717,721A) FERM protein (O00522 420-734 L717A/L721A): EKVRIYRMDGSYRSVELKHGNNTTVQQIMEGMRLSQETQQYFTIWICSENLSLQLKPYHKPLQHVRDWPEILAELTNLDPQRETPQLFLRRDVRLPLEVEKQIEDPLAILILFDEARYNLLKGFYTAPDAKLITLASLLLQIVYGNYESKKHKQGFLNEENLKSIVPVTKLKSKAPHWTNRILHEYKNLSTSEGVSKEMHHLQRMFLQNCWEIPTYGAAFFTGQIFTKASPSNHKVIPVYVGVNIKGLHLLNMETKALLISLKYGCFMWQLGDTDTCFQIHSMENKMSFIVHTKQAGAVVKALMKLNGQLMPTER
Chain of GST-KRIT1 FERM (O00522 420-734): as the sequence (O00522 420-734 L717A/L721A) above, with A298L, A302L counted along it

B1: HEG1 cytoplasmic tail model protein (residues 1,274-1,381) (domain or fragment, human, UniProt Q9ULI3 1274-1381, looked up)
chain: RKNKNDISKLIFKSGDFQMSPYAEYPKNPRSQEWGREAIEMHENGSTKNLLQMTDVYYSPTSVRNPELERNGLYPAYTGLPGSRHSCIFPGQYNPSFISDESRRRDYF
B1: binds [1].

SRHSCIFPGQYNPSFISDESRRRDYF (peptide, UniProt Q9ULI3 1356-1381, looked up) [recombinant human HEG1 C26 peptide (residues 1,356-1,381)] was tested, and the “fold reduction in affinity against wild type” value [2] was greater than 100 fold and the “stoichiometry N” value [3] was 1.01.

— publication PMC3461514 (The Journal of Cell Biology, 2012)
